Measurements published in publication PMC3511906 (Biochemistry, 2012).

Target: the molecule itself
Assay: crystal structure

B1: MIP-2/CXCL2 (murine macrophage inflammatory protein-2) (natural protein, UniProt P10889 28-100, looked up)
chain: AVVASELRCQCLKTLPRVDFKNIQSLSVTPPGPHCAQTEVIATLKGGQKVCLDPEAPLVQKIIQKILNKGKAN
stoichiometry N: 2
